For this experiment, the target named is T1, HDA15-GST (Arabidopsis, UniProt Q8GXJ1 1-552).
T1 sequence (looked up): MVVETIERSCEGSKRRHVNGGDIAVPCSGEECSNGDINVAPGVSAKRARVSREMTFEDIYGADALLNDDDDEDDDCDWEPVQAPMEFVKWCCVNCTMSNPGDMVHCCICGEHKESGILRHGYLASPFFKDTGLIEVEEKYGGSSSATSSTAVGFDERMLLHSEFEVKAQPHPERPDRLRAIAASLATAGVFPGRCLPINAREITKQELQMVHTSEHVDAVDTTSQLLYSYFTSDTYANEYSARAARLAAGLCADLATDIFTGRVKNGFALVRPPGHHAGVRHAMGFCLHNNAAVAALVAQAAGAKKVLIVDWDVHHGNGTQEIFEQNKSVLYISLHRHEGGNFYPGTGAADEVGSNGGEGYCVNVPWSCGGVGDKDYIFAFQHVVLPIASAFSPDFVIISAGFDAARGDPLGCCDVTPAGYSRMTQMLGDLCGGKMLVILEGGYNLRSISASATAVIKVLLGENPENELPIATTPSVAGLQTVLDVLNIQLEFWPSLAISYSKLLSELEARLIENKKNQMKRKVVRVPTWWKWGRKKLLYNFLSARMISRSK
As to the kind of experiment: pull-down.

Consider one molecule from publication PMC5499575 (Nucleic Acids Research, 2017).

B1: PIF1-His (natural protein, Arabidopsis, UniProt Q8GZM7 1-478, looked up)
chain: MHHFVPDFDTDDDYVNNHNSSLNHLPRKSITTMGEDDDLMELLWQNGQVVVQNQRLHTKKPSSSPPKLLPSMDPQQQPSSDQNLFIQEDEMTSWLHYPLRDDDFCSDLLFSAAPTATATATVSQVTAARPPVSSTNESRPPVRNFMNFSRLRGDFNNGRGGESGPLLSKAVVRESTQVSPSATPSAAASESGLTRRTDGTDSSAVAGGGAYNRKGKAVAMTAPAIEITGTSSSVVSKSEIEPEKTNVDDRKRKEREATTTDETESRSEETKQARVSTTSTKRSRAAEVHNLSERKRRDRINERMKALQELIPRCNKSDKASMLDEAIEYMKSLQLQIQMMSMGCGMMPMMYPGMQQYMPHMAMGMGMNQPIPPPSFMPFPNMLAAQRPLPTQTHMAGSGPQYPVHASDPSRVFVPNQQYDPTSGQPQYPAGYTDPYQQFRGLHPTQPPQFQNQATSYPSSSRVSSSKESEDHGNHTTG
B1: the binding result is reported as “binds”.
